According to US20040170601A1, “Method of improving the growth performance of an animal” (priority 2001, published 2004):
Where “and” joins values, the source holds several entries; their conditions need not be identical. Equal entries are not always repeated. Entries after “also recorded” stand apart in the source; their conditions may differ.

What was measured:
[1] = Example 8: growth performance of pigs administered IL-3 in a commercial piggery; assay type: in vivo
Description: This trial evaluated the capacity of IL-3 to improve growth performance and immunity of pigs by comparing the growth rate and health of weaner pigs (28 day old weaners is Day 0 of the trial and the weaner period continued for 42 days) through to the finisher stage (Days 93 to 113) and slaughter (133 days after commencing the trial), which were administered with the recombinant porcine cytokine, IL-3, and saline was used as a control, with and without standard weaner medicated water and feed in a commercial piggery environment.
40 pigs per treatment were mixed in groups, with 4 replicates containing standard medicated water and feed and 4 replicates without medicated feed or water.
Overall weights for each group at the start of the experiment were equivalent. All pigs at the start of the trial (Day 0) were 28 day old male weaners.
IL-3 was provided in saline to inject 1 ml/pig.
Weights were measured at start, throughout the experiment and at the end of experiment. The trial continued for 133 days after the commencement ie. final weights were determined and animals slaughtered 133 days after the start of the weaning period. Weaning Days 0-42, Grower period Days 42-93, Finisher period Days 93-133. Treatments were administered during the weaner period only.
Blood and sera samples collected at start (before treatments) and end of the weaner period. Blood and sera were taken prior to injecting samples.
Recombinant porcine IL-3 was expressed in E. coli and purified using a polyHis tag system as described in Example 4. IL-3 was tested for biological activity in a bioassay prior to the start of the experiment.

eosinophils [2] = assay: Example 11: IL-5 and IL-3 on eosinophil production; assay type: in vivo, pigs; details: single cytokine 100 μg IM days 0, 3, 7, 10
Description: The aim of this example was to determine if the effects of IL-3 and IL-5 act synergistically to increase eosinophil levels and antibody production.
As IL-3 stimulates the proliferation of pre-active B cells prior to the effects of IL-5, it was believed that administration of both IL-3 and IL-5 would have a greater impact on eosinophil production than the administration of either cytokine alone. An experiment was undertaken using pigs raised under clean PC2 conditions with raised floors. There were 5 treatments with 6 pigs per treatment. Pigs were 5-6 weeks of age. The animals were injected intramuscularly on days 0, 3, 7 and 10 of the experiment with either recombinant cytokines or saline. The treatments include IL-5 and IL-3 alone and given either together at the same time at different sites or to the same animal but with IL-3 being administered one week before IL-5. The treatments were as follows:
Group 3—100 μg IL-3+100 μg IL-5 (separate sites)
The pigs were bled 4 times per week for the first 2 weeks and once per week for the following 2 weeks and haematology measured using a CellDyn machine. Sera were collected also each week and tested for antibody levels.

eosinophils [3] = assay: Example 10: porcine IL-3 on cell populations over a longer duration; assay type: in vivo, pigs; details: 100 μg IL-3 twice weekly for 2 weeks, followed to day 57
Description: This trial compared the effects of recombinant porcine IL-3 protein on eosinophil numbers in the blood of pigs over 8 weeks.
(§1) The experiment was conducted using medicated feed (Barastoc EziWean 150 then Bunge Grolean) ad libitum in an experimental environment (PC2 containment facilities).
Injections were administered intramuscularly in the hind leg. Pigs were 5 weeks of age at commencement of trial. Blood samples were taken for haematology on days 0 (prior to injection), 1, 2, 3, 4, 7, 8, 10, 11, 15, 22, 29, and 57. Full haematology analysis was performed, using the Abbott Cell-Dyn 3700. Examination of selected smears was done for confirmation.

[4] = tested on: cell populations in the blood; assay: Example 9: porcine IL-3 on blood cell populations; assay type: in vivo, pigs
Description: This trial examined the effect of administering recombinant porcine IL-3 protein on cell populations in the blood of pigs.
as §1
Injections were administered intramuscularly in the hind leg. Pigs were 9 weeks of age at commencement of trial.
Blood samples were taken for haematology on days 0, 1, 2, 3, 4, 7, 9, 11, 15 and 17. Full haematology analysis was performed, using the Abbott Cell-Dyn 3700 and examination of selected smears were done for confirmation.

IL-6 = assay: Example 12: IL-6 in peripheral blood by RT-PCR after App challenge; assay type: in vivo, pigs; details: day 13 after challenge
Description: (§2) Due to the intermittent availability of Actinobacillus pleuropneumoniae (App), the App challenge was performed separately on the 2 rooms, resulting in different time schedules for each room, as outlined in Table 9. Prior to each challenge, pigs were treated with recombinant cytokines, flunix or plasmids as described above; the timing of treatments with respect to challenge is described in Table 9. Pigs were anaesthetised and infected intratracheally with 7.5×10^5 […] on day 0.
(§3) […] Blood was assayed for immunological parameters as previously described.
(§4) Briefly, assays were performed on blood samples using standard techniques, including: white blood cell counts performed using an automated cell counter; differential cell counts performed manually on stained blood smears; lymphocyte subset enumeration via flow cytometry; neutrophil function determined by flow cytometry; lymphocyte proliferation determined using a thymidine incorporation assay in response to mitogens; total IgG and IgA levels were identified using indirect sandwich ELISA; levels of mRNA for pro-inflammatory cytokines was detected by RT-PCR. TNF levels were additionally measured in serum by bioassay using L929 target cells. Pigs were weighed weekly from delivery of plasmids and for 2 weeks after challenge.

[5] = tested on: Brachyspira (Serpulina) hyodysenteriae; assay: Example 13: swine dysentery challenge, IL-4 prophylactic; assay type: in vivo, pigs
Description: The aim of this example was to determine whether IL-4 could improve the health of pigs infected with an enteric inflammatory pathogen causing swine dysentery, Brachyspira (Serpulina) hyodysenteriae. A further aim was to determine whether IL-4 could improve the growth rate of pigs under conditions of challenge with swine dysentery.
Male pigs with a mean starting weight of 6.5 kg, were allocated to treatment groups consisting of eight pigs (Table 10). Pigs were housed in group pens, with each pen containing a replicate from each of the treatment groups. One group of 8 pigs was housed in a separate room and left uninfected to act as untreated controls. Pigs were provided with pelleted feed and water ad libitum.
Prior to swine dysentery challenge, pigs were treated with recombinant IL-4 or saline, as described in Table 10. Cytokines and the antibiotic, Lincocin, were delivered by intramuscular injection at intervals outlined in Table 11. Pigs were infected with Brachyspira hyodysenteriae at day 0, day 1 and day 2, given as an oral bolus of 120ml of spirochaete culture in log phase of growth, containing approximately […] cells.
Faecal swabs and blood samples were taken from each pig at intervals described in Table 11. Faecal swabs were cultured for the presence of spirochaetes. Blood samples were assayed for immunological parameters as described in example 1 above. Pigs were weighed at weekly intervals throughout the experiment, which was terminated by euthanasia on days 19 and 20 after the initial challenge. At post mortem swabs from areas of the hindgut were cultured for the presence of spirochaetes, and the gross pathological condition of the gastro-intestinal tissue noted.

TNFα = assay: Example 12: TNFα in serum after App challenge (bioassay, L929 target cells); assay type: in vivo, pigs; details: day 13 after challenge
Description: as §2, §3, §4

[6] = tested on: Actinobacillus pleuropneumoniae; assay: Example 12: Actinobacillus pleuropneumoniae (App) challenge: growth, clinical signs, lung pathology; assay type: in vivo, pigs
Description: The following experiment was designed to determine whether IL-4 could improve the growth of immunologically challenged pigs compared to saline treated controls and positive controls treated with the non-steroidal anti-inflammatory drug (NSAID) Flunix. It was also devised to determine whether IL-4 could be delivered via plasmids.
Male pigs, with a mean starting weight of 52 kg, were allocated to 5 treatment groups (Table 8). Pigs were housed in group pens, with each pen containing a replicate from each of the treatment groups. Pigs were provided with pelleted feed and water ad libitum.
Recombinant IL-4 and saline were administered as 2 ml doses, given subcutaneously behind the ear. Plasmids were administered in 1 ml doses, given intramuscularly in the hind-leg. Flunix was administered as a 2 ml dose according to the manufacturer's instructions, and delivered intramuscularly in the neck. The timetable of administration is outlined in Table 9 below.
as §2, §4
IL-4 delivered as a recombinant caused a reduction of 36% in the presence of clinical symptoms compared to pigs treated with saline, while IL-4 delivered in plasmid form produced a reduction of 62% compared to saline-treated controls (45% reduction compared to plasmid-treated controls).
At the conclusion of the trial, pigs were euthanased and the lungs removed for post-mortem examination. Lungs were scored for pleurisy from 0-5 (FIG. 79) and the degree of pleuropneumonia was determined by weighing affected lung and expressed as a percentage of total lung weight (FIG. 80).

[7] = day 7 prior to challenge to slaughter at days 19 and 20

interleukin 3 [IL-3]
average warm carcass weight at slaughter above respective saline control ([1]; medicated): approximately 4 kg/pig | average weights during the trial ([1]; medicated): consistently showed higher average weights than all other groups | final average weight higher than saline medicated control ([1]; medicated): over 3.5 kg | increase in total weight of all pigs compared to saline medicated group ([1]; medicated): approximately 10% | individual weight range ([1]; medicated): more consistent weight range than other groups | rate of gain during the weaner period ([1]; medicated and un-medicated): increased the rate of gain over the medicated and un-medicated saline controls | FCR (food conversion ratio) ([1]; medicated, finisher stage): 2.52 | % dressing ([1]; un-medicated): substantially higher % dressing than the respective un-medicated saline control | average warm carcass weight at slaughter above respective saline control ([1]; un-medicated): ~2 kg/pig | eosinophils as a percent of white blood cells (eosinophils [2]): did not significantly increase the percentage of eosinophils; also recorded: minor increases in comparison | absolute numbers of eosinophils in peripheral blood (eosinophils [3]): statistically significant increase in eosinophils | absolute eosinophils in blood ([4]; 100 μg IL-3 daily for 5 days): increase in eosinophils | absolute eosinophils in blood ([4]; 500 μg IL-3 single dose on day 0): smaller increases | basophil numbers ([4]; pig, in vivo): increase in basophil numbers | eosinophil index (area under the curves) ([4]; pig, in vivo): although there was a biological trend it was not statistically significant

B1: interleukin 4 (protein, UniProt Q04745 25-133, looked up)
Interleukin-4: HKCDITLQEIIKTLNILTARKNSCMELPVTDVFAAPENTTEKETFCRASTVLRHIYRHHTCMKSLLSGLDRNLSSMANMTCSVHEAKKSTLKDFLERLKTIMKEKYSKC
notes: recombinant IL-4 protein
production of IL-6 (IL-6): undetectable levels | spirochaete shedding in faeces (faecal culture) ([5]; after challenge): decreasing levels of spirochaete shedding by day 14 after challenge | reduction in the number of spirochaetes compared to saline treated pigs ([5]; anterior colon): 93% | gross pathology associated with dysentery ([5]; anterior colon, post mortem): reduced the signs of pathology associated with dysentery, and the severity of the pathology compared to saline in the anterior colon | reduction in the number of spirochaetes compared to saline treated pigs ([5]; caecum): 91% | improvement in gain compared to saline or antibiotic treatment [5, 7]: 24% | total weight gained over the challenge period [5, 7]: 8.5 kg | improvement in end weight vs saline treated pigs ([5]; days 19 and 20): 11% and 12% | mean weight at the end of the trial ([5]; days 19 and 20 after infection): 15.1 kg | reduction in the number of spirochaetes compared to saline treated pigs ([5]; faecal): 86% | heavier than pigs treated with Lincocin at the end of the trial ([5]; pig, in vivo): 15% | number of spirochaetes cultured from the hindgut at post mortem ([5]; pig, in vivo): significantly reduced the number of spirochaetes residing in the gut compared to saline controls; also recorded: performed as well as the Lincocin antibiotic treatment in reducing the number of spirochaetes in the caecum and colon | variability of weight ([5]; pig, in vivo): reduce variability by increasing the weight gained by smaller pigs | incidence of clinical signs in faeces (of 8 pigs) ([5]; post mortem): 3 pigs | pigs showing bloody and mucoid faeces (of 8 pigs) ([5]; post mortem): 1 pig | reduction in the number of spirochaetes compared to saline treated pigs ([5]; posterior colon): 84% | gross pathology associated with dysentery ([5]; posterior colon, post mortem): completely prevented the development of pathology in the posterior colon | TNFα production (serum) (TNFα): reduced levels of TNF production | reduction in the presence of clinical symptoms compared to saline ([6]; 30 visits in first week of challenge): 36% | heavier than saline treated peers at the termination of the experiment ([6]; after 2 weeks of challenge): 4.8 kg | improvement in growth vs saline ([6]; after 2 weeks of challenge): 73% | clinical signs of disease ([6]; first week of challenge): slightly reduced clinical signs of disease compared to saline-treated controls | growth during the (first) week of App challenge ([6]; pig, in vivo): positive growth during the week of challenge | growth in the second week of challenge ([6]; pig, in vivo): continued to gain weight | pleurisy at necropsy (score 0-5) ([6]; pig, in vivo): same level of pleurisy as saline-treated controls | weight gain over the 2 week period following challenge with App ([6]; pig, in vivo): increased weight gain compared to saline-treated controls, although this result was not statistically significant | percentage of lung affected by App lesions ([6]; vs saline-treated controls): greatly reduced
